Results reported in paper PMC2734569, “Functional mapping of the fission yeast DNA polymerase δ B-subunit Cdc1 by site-directed and random pentapeptide insertion mutagenesis” (BMC Molecular Biology, 2009).

How the values were obtained:
Assay in all cases: two-hybrid; LexA-Cdc1 bait (pBTM116 or pBTM116BN) with Gal4 activation domain-Cdc27 prey (pGAD2F-Cdc27) in S. cerevisiae CTY10-5d; ONPG liquid culture beta-galactosidase assay, mean of triplicates, as percent of wild-type Cdc1
Settings in all cases: partners not purified
[1] = molecular target: T1, Cdc1 (fission yeast DNA polymerase delta B-subunit), wild type (Schizosaccharomyces pombe, UniProt P87324 1-462)
T1 construct: DNA polymerase delta B-subunit Cdc1, S. pombe; cdc1+ cDNA on a 1.5 kb BamHI fragment from pBTM116-Cdc1, ORF 1386 bp; also called WT; LexA-Cdc1; source: yeast two-hybrid fusion, in S. cerevisiae CTY10-5d
T1 sequence (looked up): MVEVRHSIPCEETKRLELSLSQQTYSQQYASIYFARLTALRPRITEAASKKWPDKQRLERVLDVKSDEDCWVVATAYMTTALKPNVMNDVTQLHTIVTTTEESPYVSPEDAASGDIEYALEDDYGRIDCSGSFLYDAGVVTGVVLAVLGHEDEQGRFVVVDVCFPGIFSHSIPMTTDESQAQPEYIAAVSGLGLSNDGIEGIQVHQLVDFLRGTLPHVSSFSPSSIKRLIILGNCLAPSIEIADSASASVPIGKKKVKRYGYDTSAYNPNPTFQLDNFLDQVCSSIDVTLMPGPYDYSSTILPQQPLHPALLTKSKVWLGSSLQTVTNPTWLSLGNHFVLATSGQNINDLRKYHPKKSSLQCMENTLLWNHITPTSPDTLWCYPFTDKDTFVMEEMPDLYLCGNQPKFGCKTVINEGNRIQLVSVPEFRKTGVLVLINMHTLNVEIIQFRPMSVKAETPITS

Cdc1-E9 = molecular target: T2, Cdc1-E9 (Schizosaccharomyces pombe, UniProt P87324 1-462, Tyr-GlyGlyTyrProTyr-Gly)
T2 construct: Cdc1, S. pombe, with a pentapeptide inserted after residue 124; source: yeast two-hybrid fusion, in S. cerevisiae CTY10-5d
T2 sequence (looked up): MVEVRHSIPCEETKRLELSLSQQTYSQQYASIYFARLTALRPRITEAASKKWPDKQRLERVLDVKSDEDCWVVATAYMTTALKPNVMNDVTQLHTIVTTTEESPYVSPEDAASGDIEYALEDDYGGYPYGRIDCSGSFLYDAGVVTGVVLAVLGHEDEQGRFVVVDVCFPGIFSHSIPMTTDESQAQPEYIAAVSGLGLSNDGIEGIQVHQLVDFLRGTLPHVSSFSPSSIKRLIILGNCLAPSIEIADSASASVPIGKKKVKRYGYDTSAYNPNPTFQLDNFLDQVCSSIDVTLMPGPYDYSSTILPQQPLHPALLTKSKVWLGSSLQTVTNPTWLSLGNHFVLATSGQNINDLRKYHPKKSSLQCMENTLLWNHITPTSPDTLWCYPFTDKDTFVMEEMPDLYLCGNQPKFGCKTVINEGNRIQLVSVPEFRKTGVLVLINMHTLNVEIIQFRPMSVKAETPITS

Cdc1-J22 = molecular target: T3, Cdc1-J22 (Schizosaccharomyces pombe, UniProt P87324 1-462, Arg-GlyValProLeuArg-Gly)
T3 construct: Cdc1, S. pombe, with a pentapeptide inserted after residue 212; source: yeast two-hybrid fusion, in S. cerevisiae CTY10-5d
T3 sequence (looked up): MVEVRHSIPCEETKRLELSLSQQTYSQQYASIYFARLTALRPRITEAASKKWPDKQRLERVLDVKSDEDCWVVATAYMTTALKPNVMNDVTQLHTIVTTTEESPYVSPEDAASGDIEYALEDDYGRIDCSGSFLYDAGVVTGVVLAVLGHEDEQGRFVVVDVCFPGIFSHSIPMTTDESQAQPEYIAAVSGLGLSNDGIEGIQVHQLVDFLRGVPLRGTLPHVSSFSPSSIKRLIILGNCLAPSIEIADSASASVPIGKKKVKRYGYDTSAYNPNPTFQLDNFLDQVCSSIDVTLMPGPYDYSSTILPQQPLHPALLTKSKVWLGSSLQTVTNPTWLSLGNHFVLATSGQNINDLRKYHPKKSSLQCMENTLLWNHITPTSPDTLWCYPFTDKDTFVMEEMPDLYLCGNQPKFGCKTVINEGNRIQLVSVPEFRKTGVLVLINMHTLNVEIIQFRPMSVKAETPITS

Cdc1-J21 = molecular target: T4, Cdc1-J21 (Schizosaccharomyces pombe, UniProt P87324 1-462, Leu-GlyValProGlnLeu-Asp)
T4 construct: Cdc1, S. pombe, with a pentapeptide inserted after residue 275; source: yeast two-hybrid fusion, in S. cerevisiae CTY10-5d
T4 sequence (looked up): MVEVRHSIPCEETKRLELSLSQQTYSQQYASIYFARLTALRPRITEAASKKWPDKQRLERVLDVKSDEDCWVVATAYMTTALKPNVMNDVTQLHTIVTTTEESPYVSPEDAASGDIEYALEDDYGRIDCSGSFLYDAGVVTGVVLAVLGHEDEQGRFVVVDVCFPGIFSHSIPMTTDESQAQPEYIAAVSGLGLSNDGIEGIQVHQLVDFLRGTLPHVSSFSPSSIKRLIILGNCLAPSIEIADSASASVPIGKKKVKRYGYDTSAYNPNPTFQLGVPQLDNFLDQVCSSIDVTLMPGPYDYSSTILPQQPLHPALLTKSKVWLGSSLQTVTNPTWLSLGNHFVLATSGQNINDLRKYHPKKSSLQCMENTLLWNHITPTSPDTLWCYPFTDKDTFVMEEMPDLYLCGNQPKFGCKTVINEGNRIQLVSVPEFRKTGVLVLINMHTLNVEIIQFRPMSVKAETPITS

B1: Cdc27 (fission yeast DNA polymerase delta C-subunit) (natural protein, Schizosaccharomyces pombe, UniProt P30261 1-372, looked up)
chain: MEEWRNFLDIKVINESSLVTVDNLSLQLDISSEKAQEYLNMFYQGNDFLYPIYLIHGQPIDDEINLEIDEESQPISNFPVLQYILCDKSSLQEKQSRLKSGYKTVIFALSSAPLSDFDELLPAVYEIREKDVLYKKEDADKYGFIFNENSVPRVLKKAPSTHSPQLSVPSKTSTIDKTDTRSTEKTKGKDIFSNARNQKGNSSRKNKKAPLENHKEKEPLLPKEEKLSEQAKRERDDLKNIMQLEDESVSTTSVHDSEDDNLDSNNFQLEIGTEAKSAAPDEPQEIIKSVSGGKRRGKRKVKKYATTKDEEGFLVTKEEEVWESFSEDENISTGTSNVVRNKPTTVNIATKKKNTAQSKPQQKSIMSFFGKK
notes: DNA polymerase delta C-subunit Cdc27, S. pombe; prey plasmid pGAD2F-Cdc27; also called pGAD2F-Cdc27; source: yeast two-hybrid fusion, in S. cerevisiae CTY10-5d
two-hybrid beta-galactosidase activity, % of wild-type Cdc1 [1]: 100%
two-hybrid beta-galactosidase activity, % of wild-type Cdc1 (Cdc1-E9): < 1%
two-hybrid beta-galactosidase activity, % of wild-type Cdc1 (Cdc1-J22): 7%
two-hybrid beta-galactosidase activity, % of wild-type Cdc1 (Cdc1-J21): < 1%
